This series has as its target HIV-1 reverse transcriptase WT (Human immunodeficiency virus type 1, UniProt P04585;P04585 588-1147;588-1027). Briefly: site-specific Fe2+ footprinting; 6 mM MgCl2, 1 uM EFdA-TP, 1 mM Fe2+, varied dTTP; RT 600 nM, T/P 100 nM; mainly pre-translocation; Footprinting: 120 mM sodium cacodylate pH 7, 20 mM NaCl, 6 mM MgCl2, 1 uM EFdA-TP, 7 min pre-incubation with dTTP, then 1 mM ammonium iron sulfate 5 min; temperature not given; EMSA conditions not in the material. Conditions: protein: recombinant; copies: 1;1; label: 5'-Cy3 on template Td43; template 5' overhang 12 nt after EFdA-MP addition; other end blunt. In general terms: A gel shift assay detects complexes by their altered migration in electrophoresis.

From PMC3695782, “Hypersusceptibility mechanism of Tenofovir-resistant HIV to EFdA” come the findings set out here.

B1: Td43/Pd30-EFdA-MP (dsDNA)
DNA 1: CCATAGATAGCATTGGTGCTCGAACAGTGACAATCAGTGTAGA
DNA 2: TCTACACTGATTGTCACTGTTCGAGCACCAA
modifications: EFdA-MP (4'-ethynyl-2-fluoro-2'-deoxyadenosine monophosphate) as 3'-terminal nucleotide of primer, written A; added in situ by RT to Pd30 (S9)
Consider B1, for which the binding result is “binds”.
